# Measured values published in the supplement of paper PMC12764529.
# ± gives the half width of the 95% confidence interval.
# Test: folding stability dG unfold from trypsin proteolysis; higher = more stable
# Procedure, shortened: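 Sequencing followed digestion of designed mini-proteins with trypsin and chymotrypsin, each at 11 concentrations in threefold dilutions together with a no-protease condition. The mini-proteins were under 80 residues, had no cysteine, sat in a PA-tagged cDNA display construct, and were kept only if AlphaFold2 dimer inter-PAE was above 15. From the counts, Bayesian fitting gave K50, and unfolding free energy was derived against a sequence-predicted unfolded-state K50 and a shared folded-state K50, per protease or combined.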
row,Sequence,folding stability dG unfold [kcal/mol]
1,SAGGSMITLTFPAPREVAVPAIEAAAEKHGVTILSVEFDPATGRLTVTVDSSLPEEEVRAMVAAVLASAGGS [r8_338_JUSTAS],4.75 ± 0.24
2,SAGGSAGGSAGMKVVVTLPDRTVTIPVNGTLDEAKEAVIKRAEELFGKPIPIEEITMSGESAGGSAGGSAGG [r11_1028_JUSTAS],0.677 ± 0.03
3,SAGGSAGGSPPPITIFTAYKDPEDGPYWMKRRKINPDNGNIEEEWYPADDLADHGLPPGDIFISAGGSAGGS [r12_123_TrROS],-0.566 ± 0.88
4,SAGGSAGGSAGMLKKSPSPSIITVKIKPPDSDEVKTINIPPDKPEEVEKLREKGLEIEVLSAGGSAGGSAGG [r11_1006_JUSTAS],-0.459 ± 0.35
5,SMPEILDVREDPDAPGALTFRVKLPDGEATVVIPYDPETGTFTAVRYYPDGEEVREFDSFEDALEAILEDSA [r9_366_TrMRF],1.45 ± 0.019
6,SAGGSAGGSAGKPKKKPPKPKIETKTITVTITNKDGSKTTVTATIVRNKDTNELFIRISSSAGGSAGGSAGG [r11_1024_TrROS_Hall],3.07 ± 0.16
7,SAGKKSIVAPYEELKKIIELLPSGKKYKVIASDPNGKKIEGTIEVKGGKAKIEPGPKNTFKDLLIVITGSAG [r5_85_TrMRF],0.248 ± 0.061
8,SAGGIKIEIMFLMPLKDVRSIIDEIAKMPGIKITDVEVDIIPFENGTVMFRVTFEIEIYDPENGEPISAGGS [r8_374_TrROS],3.95 ± 0.21
9,SAGGSANNWKPIGEFPFRHPDGWRVTVPIWRDPGEGNIKINVKYQGPNGPPSKQMKEWAKKLLDEISAGGSA [r15_529_TrROS],0.936 ± 0.15
10,SAGGSAMMTVTITIPKENLTKEEIKKALEEAGAKVVKVEEKDGKVTVTVEMTPEQVEKLKEALKKLSAGGSA [r15_161_TrROS_Hall],3.98 ± 0.46
11,SAGGMNTESSFPITLPDGRKVLKNVKTDPETGEITVTVTSIGDPNVKTTEKVDPENPEKVLETVTKPESAGG [r13_400_JUSTAS],-0.353 ± 0.037
12,SMKITEIEPDGDGTLEIEIPVEAPPGMDPDEVQIYVMSDDGIRHVRITPNGTVEITIENIPDIRIYIFVHSA [r9_722_TrROS],1.79 ± 0.051
13,SAGGSVTLSAEFTLPDGSRVRLTVEVLPDGTLRVSAEVEAVPLVPPVRVSRLPDGSLVSDPLGVPLVLSAGG [r13_151_TrMRF],1.82 ± 0.046
14,SAGGGPLRTVEVELEFETEEEAEKAIKEYLEKLGLPPEKVEVSFVSREERLVEDKIVYRYKFVFTLPSAGGS [r16_240_JUSTAS],4.09 ± 0.13
15,SAGGMTIKPGETVEIEVGGKKITLTRNENGELTITIEDEETGETLTITVPKDTTLEEVLKKIEELLKSAGGS [r8_158_TrROS_Hall],4.04 ± 0.15
16,SAGGKIEVEPEVELYRTPDGRLVARPKPVKVKITLKLTITNENGEKKTIEVEADTPEEALAALKALSSAGGS [r8_440_TrROS_Hall],1.03 ± 0.053

row,Sequence,folding stability dG unfold [kcal/mol]
1,SAGGTVEEIKEKLEEAGWEVVKVEKKEDGSITVTVRRKDGKELKIEIDLKNEEVRKALAELLPEEELSAGGS [r16_821_TrROS_Hall],2.42 ± 0.19
2,SAMVVSEELSPEGTRTTTTFNPATGTSTTTTTPIPEEPPLPPVSIPTSLSPEEREALREELEAAGVPVVLGS [r1_242_JUSTAS],1.22 ± 0.047
3,SAMRPGDPWKPVEERKIPIRNPNNGKEIEIEVYRFKDDGMYMVSIHFPDGKSIQFMVPPGDVEEIIEQISAG [r14_240_TrROS],1.29 ± 0.037
4,SAGMITVPLPDGSVLELTVEKETVTTEVDPSTGKKRLVTETLMTNTGDLAVNGKVSPTTATLTTVVLESAGG [r19_246_JUSTAS],-0.36 ± 0.067
5,SSISIPGLTEEKAAELAKRLRELFPGAEVKTTTFPEKKVVVVDVTLPVVDADGKLVGTVKLRLVLVVEDDSA [r9_378_TrMRF],4.6 ± 0.19
6,SAGGSAGGSAGGSDYIMFRIPAPPGEKIEIPIPNGWEVEINPQPHNGRWYFMIKIPEDASAGGSAGGSAGGS [r4_360_TrROS],1.05 ± 0.085
7,SAGGSAGGSAGGAEELAKELAEKLGLEKKKVLIKLPNGKVVEVTIEDLKKLNLKNAEIVPSAGGSAGGSAGG [r7_863_TrROS_Hall],0.906 ± 0.052
8,SAGITIIIRGPDAKEAAEDIAKELLKNGFKRPITVHVLDPDGKPWYRIKIQFDPKNPGKIKVKVEPYDSAGG [r19_85_TrROS],3.39 ± 0.089
9,SLDKARDILREHGMEPTSIDVVEDGWVKVTWEYPGNKVEIFIPEDGNIMIEFRNPNNGQRVERTIPVDDVSA [r9_2_TrROS],-0.489 ± 0.2
10,SKLKIEEIEINPNMPYTISVKLPDGFYISIQYDPGKPDQMKMNIFPPDGKKREHTIPANEPIRINFEIEPSA [r9_875_TrROS],1.35 ± 0.034
11,SMVKTIEIEIVLPPGEWVKLTEEDIKEKIEKELPGWKILSIDITKEERLVPGGTEPLVVIKAKILVEKKESA [r9_1189_JUSTAS],4.26 ± 0.26
12,SAGGSAGGSAGGSMKLNITVTLPDGTPITLTFPVDKIEEILKEAGLENISPELITKIEPISAGGSAGGSAGG [r7_745_JUSTAS],1.33 ± 0.034
13,SAGGSAGGSFPLDEIRKFAKKLGNPFIEIEPVKPHVYRIKIYNKKNGKKKEFPIYLDEDGKIMSAGGSAGGS [r12_170_TrROS],0.992 ± 0.053
14,SAGGSAGGSAEELLKAFPNAEIVKYDPETKKFIIKLKDGSYLVVNLETGEIKLVSKEELEKASAGGSAGGSA [r18_381_TrROS_Hall],2.66 ± 0.11
15,SAGGMEEILKKLGVKKGDKVKIKIKVEKDGKTETVEIEVPVENLEDILKKLGLSKDQVKITEIKVEKESAGG [r13_681_TrROS_Hall],2.17 ± 0.14
